One substance from publication PMC11246345 can be followed below.

The target in one test is VEGF-A 189. Briefly: ELISA. (An ELISA detects its analyte on a solid surface through an enzyme-linked reagent.)
Another test deals with VEGF-A 165. As to the kind of experiment: ELISA.

As to US-aflibercept (Fc fusion), the %relative binding activity (against a reference standard) with VEGF-A 189 and in the test with VEGF-A 165 was 97% in each case.
